Measured values: PMC4117571

Tested on: hnRNP A1 (endogenous) ((SF268 cells))
Assay: pull-down, competition, immunoblot
Conditions: biotin-16-UTP incorporated; 5 mM HEPES pH 7.1, 40 mM KCl, 0.1 mM EDTA, 2 mM MgCl2, 2 mM DTT, RNasin, 0.25 mg/ml heparin; 200 ug SF268 extract, 3 ug RNA, 100 ul; 15 min 30 C, then beads …

EV71 5'UTR
binding signal (% reduction of bound hnRNP A1): 73

EV71 SL-II
binding signal (% reduction of bound hnRNP A1): 80
